From patent publication US20250276082A1 (INNOLAKE BIOPHARMA HANGZHOU, published 2025)
Substitutions are numbered along the chain they refer to.

B1: hu5B6 (antibody, IgG1, V domains shown)
VH: QVQLVQSGAEVKKPGSSVKVSCKASGYTFITYTIHWVRQAPGQGLEWIGYINPTSDYANFNQKFKDRATLTADKSTSTAYMELSSLRSEDTAVYYCARWGTTVFQFYFDYWGQGTLVTVSS
VL: EIVLTQSPATLSLSPGERATLSCRASQSLSYINWYQQKPGKAPKPWIYATSSLQSGVPSRFSGSASGTDYTLTISSLQPEDFATYYCQHWSSDPPTIGGGTKVEIK
notes: expressed in 293 cells; also called humanized antibody 5B6; humanized 5B6
B2: hu15A2 (antibody, IgG1, V domains shown)
VH: QVQLVQSGAEVKKPGASVKVSCKASGYTFTSYDINWVRQATGQGLEWIGWIDPGDGSTKYNEKFKGRATLTANKSISTAYMELSSLRSEDTAVYYCVRRGFDYWGQGTLVTVSS
VL: EIVLTQSPATLSLSPGERATLSCRTSSSVSYLHWFQQKPGQAPRLWIHDTSNLASGFPARFSGSGSGTDYTLTISSLEPEDFAVYYCHQRSSYPWTFGGGTKVEIK
notes: expressed in 293 cells; also called humanized antibody 15A2
B3: hu7B7 (antibody, IgG1, V domains shown)
VH: EVQLVESGGGLVKPGGSLRLSCAASGFTFSSYAVSWVRQAPGKGLEWVASISGGGIYIYYPDSVKGRFTISRDNAKNSLYLQMNSLRAEDTAVYYCARHGGAGYFDYWGQGTLVTVSS
VL: DSQMTQSPSSLSASVGDRVTITCRGSESVHSYLAWYQQKPGKAPKLLVYNAKTLQSGVPSRFSGSGSGTDFTLTISSLQPEDFATYYCQQHYGSPPWTFGGGTKVEIK
notes: expressed in 293 cells; also called humanized antibody 7B7
B4: hu2A9 (antibody, IgG1, V domains shown)
VH: QVQLVQSGAEVKKPGASVKVSCKTSGYTFTEYIMHWVRQAPGQGLEWIGGINPNSGGTTYNEKFKGRATLTVDKSISTAYMELSRLRSDDTAVYYCARRMPYWYFDVWGQGTMVTVSS
VL: EIVLTQSPATLSLSPGERATLSCSASSSVSYIHWYQQKPGQAPRRWVYDTSKLASGIPARFSGSGSGTDYTLTISSLEPEDFAVYYCQQWVSNPLTFGQGTKLEIK
notes: expressed in 293 cells; also called humanized antibody 2A9; humanized 2A9
B5: hu9C8 (antibody, IgG1, V domains shown)
VH: QVQLVQSGAEVKKPGASVKVSCKASGYTFTEYTIHWVRQAPGQGLEWIGGINPNSGGTTYNLKFKGRATLTVDKSTSTVYMELSSLRSEDTAVYYCARKEGFFTTDYWGQGTLVTVSS
VL: B4 VL with I2T, V29L, V47I, K52N, S55T, V91H, S92Y, L95P, Q99G, L103V
notes: expressed in 293 cells; also called humanized antibody 9C8; humanized 9C8
B6: hu4F11 (antibody, IgG1, V domains shown)
VH: QVQLVQSGAEVKKPGASVKVSCKTSGYTFTEYIMHWVRQAPGQGLEWIGGINPNTGGITYNQKFKDRATLTVDKSISTAYMELSRLRSDDTAVYYCARAGGNFLWYFDVWGQGTMVTVSS
VL: B4 VL with I32M, V47L, V91N
notes: expressed in 293 cells; also called humanized antibody 4F11; humanized 4F11

Experiments:
[1] = biological target: T1, Human B7H3 extracellular domain and mFc fusion protein (B7H3-ECD-mFc) (human, UniProt Q5ZPR3 29-466); experiment: ELISA, B7H3-mFc protein (table title), humanized IgG1
T1 construct: extracellular domain; also called B7H3-mFc; B7H3-mFc Protein; not shown: mouse Fc (mFc)
T1 sequence (looked up): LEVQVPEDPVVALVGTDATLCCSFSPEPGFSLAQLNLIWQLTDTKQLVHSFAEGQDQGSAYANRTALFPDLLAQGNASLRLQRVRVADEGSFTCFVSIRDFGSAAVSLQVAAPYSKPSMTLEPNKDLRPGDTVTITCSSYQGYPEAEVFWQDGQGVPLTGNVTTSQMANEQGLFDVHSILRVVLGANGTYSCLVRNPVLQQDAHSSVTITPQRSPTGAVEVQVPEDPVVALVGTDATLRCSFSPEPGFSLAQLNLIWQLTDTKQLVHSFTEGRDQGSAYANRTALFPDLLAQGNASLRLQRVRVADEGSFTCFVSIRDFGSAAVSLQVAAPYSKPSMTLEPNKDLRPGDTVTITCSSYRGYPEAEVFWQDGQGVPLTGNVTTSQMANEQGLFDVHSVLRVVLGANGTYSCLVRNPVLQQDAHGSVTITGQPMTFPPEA

[2] = biological target: T2, B7H3 on the cell surface (PC9 cells; 293T-B7H3 cells) (UniProt Q5ZPR3 29-534, limits assumed); experiment: FACS, cell surface B7H3 (PC9 cells per FIG. 10)
T2 construct: whole, on cells; both carry B7H3 on the surface; also called Cell Surface B7H3; B7H3 protein in PC9 cells
T2 sequence (looked up): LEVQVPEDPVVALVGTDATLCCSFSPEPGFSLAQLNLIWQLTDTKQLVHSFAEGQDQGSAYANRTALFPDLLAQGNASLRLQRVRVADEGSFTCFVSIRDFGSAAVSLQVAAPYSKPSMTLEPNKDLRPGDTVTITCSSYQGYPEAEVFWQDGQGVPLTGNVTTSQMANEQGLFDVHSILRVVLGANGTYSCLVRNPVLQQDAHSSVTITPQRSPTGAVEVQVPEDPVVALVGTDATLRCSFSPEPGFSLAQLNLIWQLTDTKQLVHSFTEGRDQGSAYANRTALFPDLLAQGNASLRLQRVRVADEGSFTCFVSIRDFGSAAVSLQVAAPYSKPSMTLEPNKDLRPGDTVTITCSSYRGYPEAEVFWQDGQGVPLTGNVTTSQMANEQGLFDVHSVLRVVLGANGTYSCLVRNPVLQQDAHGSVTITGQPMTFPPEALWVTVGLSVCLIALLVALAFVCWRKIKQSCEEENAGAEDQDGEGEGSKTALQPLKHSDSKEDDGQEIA

| Binder | EC50 [1] | EC50 [2] |
| --- | --- | --- |
| B1 | 0.0127 µg/mL | 0.0621 µg/mL |
| B2 | 0.00384 µg/mL | 0.0143 µg/mL |
| B3 | 0.00635 µg/mL | 0.0113 µg/mL |
| B4 | 0.0175 µg/mL | 0.14 µg/mL |
| B5 | 0.0199 µg/mL | 0.079 µg/mL |
| B6 | 0.0406 µg/mL | 0.127 µg/mL |
